This note sets out measurements from PMC3510474, “Distinct gating mechanisms revealed by the structures of a multi-ligand gated K^+ channel” (eLife, 2012).

Test [1] addresses T1, GsuK (Geobacter sulfurreducens, UniProt Q74FS9, E52A/L97D, form not given).
T1 construct: gene GSU0527; full-length channel from Ala9 with extra N-terminal MQRGS; C-terminal His-tag cut by thrombin; E. coli BL21(DE3); tetramer; model residues 17-564
Description: X-ray crystal structure, […] Å (co-crystallization). The class given is binding. The settings on record: 1 mM ADP, pH 9.0; Ca2+-bound closed gating ring; nucleotide site on RCK2; allosteric.

The target of test [2] is T1, GsuK. In words: X-ray crystal structure, […] Å (co-crystallization). It is filed as binding. The settings on record: 1 mM NAD+, pH 9.0; Ca2+-bound closed gating ring; nucleotide site on RCK2, nicotinamide beneath RCK1 helix αF; partial occupancy; allosteric.
Test [3] addresses GsuK intracellular subunit (Geobacter sulfurreducens). Description: crystal structure; GsuK intracellular subunit, about 8 mg/ml in LDAO, sitting drop at 20°C, 20–23% PEG3350, 120 mM KCl, 80 mM NaNO3, 1% glycerol, 100 mM Bis-Tris propane pH 8.5; space group I222, four subunits forming a gating ring in the asymmetric unit; 3.0 Å.
The target is the same in test [4]. Description: SEC; Superdex-200 (10/30) in 50 mM Tris–HCl pH 8.0, 250 mM KCl, 2 mM DTT, 4 mM LDAO (GsuK intracellular subunit).
Test [5] concerns the target full-length GsuK channel, L97D mutant (Geobacter sulfurreducens). In words: crystal structure; full-length channel in DM with E. coli polar lipids, about 6 mg/ml, 20°C, 13–18% PEG3350, 250–500 mM KSCN, 100 mM CHES pH 9.0; space group C2, four subunits in the asymmetric unit as two half channels; L97D also co-crystallised with 1 mM ADP or NAD+.
In test [6] the target is full-length GsuK channel, wild type (with E52A and Q77E or R) (Geobacter sulfurreducens). In words: SEC; Superdex-200 (10/30) in 20 mM CHES pH 9.0, 150 mM KSCN, 0.1 mg/ml E. coli polar lipid, 2 mM DTT, 4 mM DM (full-length GsuK channel). For orientation: Size exclusion chromatography separates by hydrodynamic size, large species first.
For test [7] the target is unchanged. In words: crystal structure; full-length channel in DM with E. coli polar lipids, about 6 mg/ml, 20°C, 13–18% PEG3350, 250–500 mM KSCN, 100 mM CHES pH 9.0; space group C2, four subunits in the asymmetric unit as two half channels; L97D also co-crystallised with 1 mM ADP or NAD+.

T1 sequence (Q74FS9 entry or part of it E52A/L97D, form open): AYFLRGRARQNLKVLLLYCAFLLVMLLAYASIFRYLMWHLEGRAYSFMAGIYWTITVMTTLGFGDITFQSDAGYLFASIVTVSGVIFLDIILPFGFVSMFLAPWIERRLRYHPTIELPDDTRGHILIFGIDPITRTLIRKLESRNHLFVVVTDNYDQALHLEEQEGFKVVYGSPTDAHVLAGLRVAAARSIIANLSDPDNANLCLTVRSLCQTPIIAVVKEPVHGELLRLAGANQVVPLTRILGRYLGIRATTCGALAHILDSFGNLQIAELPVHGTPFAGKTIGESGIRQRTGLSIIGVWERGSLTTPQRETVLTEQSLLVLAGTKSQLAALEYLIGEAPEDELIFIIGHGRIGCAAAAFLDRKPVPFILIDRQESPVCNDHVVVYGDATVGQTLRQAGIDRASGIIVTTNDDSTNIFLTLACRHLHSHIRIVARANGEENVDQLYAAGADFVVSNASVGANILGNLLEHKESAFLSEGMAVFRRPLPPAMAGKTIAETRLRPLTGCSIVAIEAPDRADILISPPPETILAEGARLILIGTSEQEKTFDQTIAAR

For `Nc1ncnc2c1ncn2[C@@H]1O[C@H](COP(=O)(O)OP(=O)(O)O)[C@@H](O)[C@H]1O` [ADP], the “X-ray crystal structure, 2.8 Å (co-crystallization)” value on GsuK [1] was “we also co-crystallized the L97D mutant with ADP and NAD^+”. Regarding `NC(=O)c1ccc[n+]([C@@H]2O[C@H](COP(=O)(O)OP(=O)(O)OC[C@H]3O[C@@H](n4cnc5c(N)ncnc54)[C@H](O)[C@@H]3O)[C@@H](O)[C@H]2O)c1` [NAD^+], the “X-ray crystal structure, 3.2 Å (co-crystallization)” value on GsuK [2] was “we also co-crystallized the L97D mutant with ADP and NAD^+”. Turning to “GsuK intracellular subunit (domain or fragment)”, the stoichiometry N in test [3] and in test [4] was 4 throughout.

In the case of “full-length GsuK channel, L97D mutant (natural protein)”, the stoichiometry N in test [5] stood at 4. On to “full-length GsuK channel, wild type (with E52A and Q77E or R) (natural protein)”, for which the stoichiometry N in test [6] and in test [7] was 4 in each case.

For orientation: stoichiometry N means a count of units in the complex or per binding partner.
